Experimental data taken from patent US20180339042A1 (published 2018).

Biological target: T1, human GITR, membrane bound (human, UniProt Q9Y5U5 26-241)
T1 sequence: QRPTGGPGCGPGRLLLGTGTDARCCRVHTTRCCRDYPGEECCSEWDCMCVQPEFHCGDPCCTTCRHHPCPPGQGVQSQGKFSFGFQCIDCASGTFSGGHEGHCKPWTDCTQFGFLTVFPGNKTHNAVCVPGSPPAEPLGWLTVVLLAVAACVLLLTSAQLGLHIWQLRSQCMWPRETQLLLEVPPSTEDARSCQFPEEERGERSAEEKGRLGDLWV
Test: cell-based or functional assay

NFKB signaling (phospho-p65), CD4+ T cells, Emax (%): 69%
NFKB signaling (phospho-p65), CD8+ T cells, Emax (%): 85%
B1: 28F3 (antibody, human IgG2, kappa)
heavy: QVQLVESGGGVVQPGRSLRLSCAASGFTFSSYGMHWVRQAPGKGLEWVAVIWYEGSNKYYADSVKGRFTISRDNSKNTLYLQMNSLRAEDTAVYYCARGGSMVRGDYYYGMDVWGQGTTVTVSSASTKGPSVFPLAPCSRSTSESTAALGCLVKDYFPEPVTVSWNSGALTSGVHTFPAVLQSSGLYSLSSVVTVPSSNFGTQTYTCNVDHKPSNTKVDKTVERKCCVECPPCPAPPVAGPSVFLFPPKPKDTLMISRTPEVTCVVVDVSHEDPEVQFNWYVDGVEVHNAKTKPREEQFNSTFRVVSVLTVVHQDWLNGKEYKCKVSNKGLPAPIEKTISKTKGQPREPQVYTLPPSREEMTKNQVSLTCLVKGFYPSDIAVEWESNGQPENNYKTTPPMLDSDGSFFLYSKLTVDKSRWQQGNVFSCSVMHEALHNHYTQKSLSLSPGK
light: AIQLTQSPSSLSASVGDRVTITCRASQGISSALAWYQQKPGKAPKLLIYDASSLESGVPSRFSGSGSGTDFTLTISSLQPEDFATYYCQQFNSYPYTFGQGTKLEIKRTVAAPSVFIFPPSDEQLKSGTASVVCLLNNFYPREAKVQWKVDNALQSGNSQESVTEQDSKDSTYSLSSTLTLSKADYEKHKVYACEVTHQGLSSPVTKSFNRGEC
